Laboratory results as given in paper PMC6317261, “Functional dissection of the developmentally restricted BEN domain chromatin boundary factor Insensitive” (Epigenetics & Chromatin, 2019).
Values joined by “and” are separate entries in the source; they are usually repeats but may differ in a detail not shown here. Identical values can stand only once.

Key:
[1] = target: the molecule itself; assay: SEC; Superose 6 10/300 column; 500 uL of the eluted protein loaded; fractions analysed by SDS-PAGE and EMSA; sizes estimated against Bio-Rad standards
[2] = target: the molecule itself; assay: cross-linking; glutaraldehyde, 10 min at room temperature in PBS with 1 mM beta-mercaptoethanol; protein adjusted to 10 uM; SDS-PAGE, silver staining
GST:N-terminal 213 aa = target: T1, GST:N-terminal 213 aa (UniProt Q8SYK5 1-213); assay: EMSA; data not shown; EMSA: 25 mM Tris-HCl pH 7.4, 100 mM KCl, 1 mM EDTA, 0.1 mM DTT, 0.1 mM PMSF, 0.03 mg/mL BSA, 10% glycerol, 0.5% Triton X-100, 0.25 mg/mL poly(dI-dC), 30 min room temperature; conditions: protein: recombinant; tags: N-terminal GST; label: 5'-32P; blunt
T1 sequence: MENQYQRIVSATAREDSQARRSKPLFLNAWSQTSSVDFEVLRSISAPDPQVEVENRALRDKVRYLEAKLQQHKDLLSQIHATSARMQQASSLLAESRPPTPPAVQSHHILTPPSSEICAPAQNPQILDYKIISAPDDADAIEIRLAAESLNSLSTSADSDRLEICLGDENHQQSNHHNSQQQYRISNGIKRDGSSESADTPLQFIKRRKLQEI

GST:BEN = target: T2, GST:BEN (UniProt Q8SYK5 258-356); assay: EMSA; EMSA: 25 mM Tris-HCl pH 7.4, 100 mM KCl, 1 mM EDTA, 0.1 mM DTT, 0.1 mM PMSF, 0.03 mg/mL BSA, 10% glycerol, 0.5% Triton X-100, 0.25 mg/mL poly(dI-dC), 30 min room temperature; conditions: protein: recombinant; tags: N-terminal GST; chain copies: 2; label: 5'-32P; blunt
T2 sequence: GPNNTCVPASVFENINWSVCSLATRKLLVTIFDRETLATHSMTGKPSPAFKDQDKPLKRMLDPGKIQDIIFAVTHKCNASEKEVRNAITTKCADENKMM

GST:C-BEN = target: T3, GST:C-BEN (UniProt Q8SYK5 210-376); assay: as above; conditions: protein: recombinant; tags: N-terminal GST; chain copies: 2; label: 5'-32P; blunt
T3 sequence: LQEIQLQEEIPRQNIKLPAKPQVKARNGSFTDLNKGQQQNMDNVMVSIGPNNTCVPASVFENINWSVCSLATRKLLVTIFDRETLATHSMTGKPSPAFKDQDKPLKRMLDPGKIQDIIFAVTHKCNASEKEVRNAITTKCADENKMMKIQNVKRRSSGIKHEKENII

GST:F-Insv = target: T4, GST:F-Insv (UniProt Q8SYK5 1-376); assay: EMSA; closely spaced doublet; EMSA: 25 mM Tris-HCl pH 7.4, 100 mM KCl, 1 mM EDTA, 0.1 mM DTT, 0.1 mM PMSF, 0.03 mg/mL BSA, 10% glycerol, 0.5% Triton X-100, 0.25 mg/mL poly(dI-dC), 30 min room temperature; conditions: protein: recombinant; tags: N-terminal GST; label: 5'-32P; blunt
T4 sequence: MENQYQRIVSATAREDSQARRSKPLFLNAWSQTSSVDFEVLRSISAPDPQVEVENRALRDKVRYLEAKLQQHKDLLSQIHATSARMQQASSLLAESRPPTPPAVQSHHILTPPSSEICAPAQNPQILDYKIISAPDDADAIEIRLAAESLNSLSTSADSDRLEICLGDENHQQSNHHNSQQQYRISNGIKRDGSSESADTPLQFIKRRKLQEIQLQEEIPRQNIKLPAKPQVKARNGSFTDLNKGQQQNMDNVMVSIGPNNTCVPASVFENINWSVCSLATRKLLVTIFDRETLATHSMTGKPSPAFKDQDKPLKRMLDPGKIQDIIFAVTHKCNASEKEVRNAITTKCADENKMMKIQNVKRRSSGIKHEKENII

HT:F-Insv [3] = target: T5, HT:F-Insv (UniProt Q8SYK5 1-376); assay: EMSA; 0.0005-0.5 uM protein; EMSA: 25 mM Tris-HCl pH 7.4, 100 mM KCl, 1 mM EDTA, 0.1 mM DTT, 0.1 mM PMSF, 0.03 mg/mL BSA, 10% glycerol, 0.5% Triton X-100, 0.25 mg/mL poly(dI-dC), 30 min room temperature; conditions: protein: recombinant; tags: N-terminal His-Thioredoxin; label: 5'-32P; blunt
T5 sequence: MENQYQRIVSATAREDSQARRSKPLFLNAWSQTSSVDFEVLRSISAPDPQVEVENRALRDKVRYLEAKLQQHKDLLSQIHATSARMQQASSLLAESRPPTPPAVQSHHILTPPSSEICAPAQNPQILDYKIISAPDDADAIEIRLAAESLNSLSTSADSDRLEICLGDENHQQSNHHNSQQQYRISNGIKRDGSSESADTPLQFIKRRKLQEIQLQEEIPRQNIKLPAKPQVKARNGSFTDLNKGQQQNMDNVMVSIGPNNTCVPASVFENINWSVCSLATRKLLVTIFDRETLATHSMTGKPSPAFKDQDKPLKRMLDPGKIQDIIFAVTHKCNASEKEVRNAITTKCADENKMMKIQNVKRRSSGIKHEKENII

HS:C-BEN [4] = target: T6, HS:C-BEN (UniProt Q8SYK5 210-376); assay: EMSA; two shifts; slower one predominates at high protein; EMSA: 25 mM Tris-HCl pH 7.4, 100 mM KCl, 1 mM EDTA, 0.1 mM DTT, 0.1 mM PMSF, 0.03 mg/mL BSA, 10% glycerol, 0.5% Triton X-100, 0.25 mg/mL poly(dI-dC), 30 min room temperature; conditions: protein: recombinant; tags: N-terminal His-Sumo; chain copies: 2; label: 5'-32P; blunt
T6 sequence: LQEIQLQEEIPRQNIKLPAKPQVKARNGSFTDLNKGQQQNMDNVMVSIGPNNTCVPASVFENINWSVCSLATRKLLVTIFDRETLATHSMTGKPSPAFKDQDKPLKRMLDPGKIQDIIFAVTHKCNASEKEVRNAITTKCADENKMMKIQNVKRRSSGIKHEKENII

HS:F-Insv = target: T7, HS:F-Insv (UniProt Q8SYK5 1-376); assay: EMSA; gel-filtration fractions ~420-120 kDa; early aggregate fractions give no shift; EMSA: 25 mM Tris-HCl pH 7.4, 100 mM KCl, 1 mM EDTA, 0.1 mM DTT, 0.1 mM PMSF, 0.03 mg/mL BSA, 10% glycerol, 0.5% Triton X-100, 0.25 mg/mL poly(dI-dC), 30 min room temperature; conditions: protein: recombinant; tags: N-terminal His-Sumo; label: 5'-32P; blunt
T7 sequence: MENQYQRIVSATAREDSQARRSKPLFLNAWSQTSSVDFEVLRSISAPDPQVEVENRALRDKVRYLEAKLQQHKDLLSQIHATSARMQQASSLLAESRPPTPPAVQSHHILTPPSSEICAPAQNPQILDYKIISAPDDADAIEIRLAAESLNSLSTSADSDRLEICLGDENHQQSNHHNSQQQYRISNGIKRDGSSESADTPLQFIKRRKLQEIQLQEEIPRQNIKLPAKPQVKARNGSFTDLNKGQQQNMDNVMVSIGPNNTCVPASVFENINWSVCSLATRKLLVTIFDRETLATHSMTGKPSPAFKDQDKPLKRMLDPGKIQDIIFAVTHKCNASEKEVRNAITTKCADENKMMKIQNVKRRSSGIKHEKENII

HT:F-Insv [5] = target: T5, HT:F-Insv; assay: EMSA; multiple shifts; 0.0005-0.5 uM protein; EMSA: 25 mM Tris-HCl pH 7.4, 100 mM KCl, 1 mM EDTA, 0.1 mM DTT, 0.1 mM PMSF, 0.03 mg/mL BSA, 10% glycerol, 0.5% Triton X-100, 0.25 mg/mL poly(dI-dC), 30 min room temperature; conditions: protein: recombinant; tags: N-terminal His-Thioredoxin; label: 5'-32P; blunt
HS:C-BEN [6] = target: T6, HS:C-BEN; assay: EMSA; multiple shifts, mainly tetramer/hexamer; EMSA: 25 mM Tris-HCl pH 7.4, 100 mM KCl, 1 mM EDTA, 0.1 mM DTT, 0.1 mM PMSF, 0.03 mg/mL BSA, 10% glycerol, 0.5% Triton X-100, 0.25 mg/mL poly(dI-dC), 30 min room temperature; conditions: protein: recombinant; tags: N-terminal His-Sumo; chain copies: 2; label: 5'-32P; blunt
HS:C-BEN [7] = target: T6, HS:C-BEN; assay: EMSA; multiple shifts, at lower protein than for P2; EMSA: 25 mM Tris-HCl pH 7.4, 100 mM KCl, 1 mM EDTA, 0.1 mM DTT, 0.1 mM PMSF, 0.03 mg/mL BSA, 10% glycerol, 0.5% Triton X-100, 0.25 mg/mL poly(dI-dC), 30 min room temperature; conditions: protein: recombinant; tags: N-terminal His-Sumo; chain copies: 2; label: 5'-32P; blunt
HT:F-Insv [8] = target: T5, HT:F-Insv; assay: EMSA; at least three shifts; EMSA: 25 mM Tris-HCl pH 7.4, 100 mM KCl, 1 mM EDTA, 0.1 mM DTT, 0.1 mM PMSF, 0.03 mg/mL BSA, 10% glycerol, 0.5% Triton X-100, 0.25 mg/mL poly(dI-dC), 30 min room temperature; conditions: protein: recombinant; tags: N-terminal His-Thioredoxin; label: 5'-32P; blunt

B1: His-Thioredoxin F-Insv (HT:F-Insv) (natural protein, Drosophila, UniProt Q8SYK5 1-376, looked up)
chain: MENQYQRIVSATAREDSQARRSKPLFLNAWSQTSSVDFEVLRSISAPDPQVEVENRALRDKVRYLEAKLQQHKDLLSQIHATSARMQQASSLLAESRPPTPPAVQSHHILTPPSSEICAPAQNPQILDYKIISAPDDADAIEIRLAAESLNSLSTSADSDRLEICLGDENHQQSNHHNSQQQYRISNGIKRDGSSESADTPLQFIKRRKLQEIQLQEEIPRQNIKLPAKPQVKARNGSFTDLNKGQQQNMDNVMVSIGPNNTCVPASVFENINWSVCSLATRKLLVTIFDRETLATHSMTGKPSPAFKDQDKPLKRMLDPGKIQDIIFAVTHKCNASEKEVRNAITTKCADENKMMKIQNVKRRSSGIKHEKENII
notes: Insensitive (Insv), Drosophila, full-length; also called HT:Insv; HT-Insv; source: E. coli, purified (Ni-NTA Agarose); not shown: His6, N-terminal, kept; Thioredoxin, N-terminal, kept
stoichiometry N [1]: 2 and 4

B2: HT:N1-267 (domain or fragment, Drosophila, UniProt Q8SYK5 1-267, looked up)
chain: MENQYQRIVSATAREDSQARRSKPLFLNAWSQTSSVDFEVLRSISAPDPQVEVENRALRDKVRYLEAKLQQHKDLLSQIHATSARMQQASSLLAESRPPTPPAVQSHHILTPPSSEICAPAQNPQILDYKIISAPDDADAIEIRLAAESLNSLSTSADSDRLEICLGDENHQQSNHHNSQQQYRISNGIKRDGSSESADTPLQFIKRRKLQEIQLQEEIPRQNIKLPAKPQVKARNGSFTDLNKGQQQNMDNVMVSIGPNNTCVPAS
notes: source: E. coli, purified (Ni-NTA Agarose); not shown: His6, N-terminal, kept; Thioredoxin, N-terminal, kept
stoichiometry N [2]: 4

B3: P3 (dsDNA)
DNA 1: CCACCGCAAAATCCAATTGGAAGAGAGCGACT
DNA 2: AGTCGCTCTCTTCCAATTGGATTTTGCGGTGG
binding result (GST:N-terminal 213 aa): no binding
binding result (GST:BEN): binds
binding result (GST:C-BEN): binds
binding result (GST:F-Insv): binds
binding result (HT:F-Insv [3]): binds
binding result (HS:C-BEN [4]): binds
binding result (HS:F-Insv): binds

B4: P2 (P2#7) (dsDNA)
DNA 1: CTTGCGCAGGACTTTTGAGATTCTATTAAATTCTAACAAGATTTCAAGCTGTGTGGCGGGGGGAAGAGGAAGAGAGCGGAAAGTGCAGCGCCCAATAAGCAAATGGCAGCTGTCACG
DNA 2: CGTGACAGCTGCCATTTGCTTATTGGGCGCTGCACTTTCCGCTCTCTTCCTCTTCCCCCCGCCACACAGCTTGAAATCTTGTTAGAATTTAATAGAATCTCAAAAGTCCTGCGCAAG
binding result (HT:F-Insv [5]): binds
binding result (HS:C-BEN [6]): binds

B5: 2xPal (dsDNA)
DNA 1: CTCGAGGGGTTTCTTTCCCAATTGGAAATGCGTCCTGTCGAGGGGTTTCTTTCCCAATTGGAAATGCGTCCTGTCGACGGTATCGATAAGCTTGATATCGAATTCCTGCAGCCCGGGGATCC
DNA 2: GGATCCCCGGGCTGCAGGAATTCGATATCAAGCTTATCGATACCGTCGACAGGACGCATTTCCAATTGGGAAAGAAACCCCTCGACAGGACGCATTTCCAATTGGGAAAGAAACCCCTCGAG
binding result (HS:C-BEN [7]): binds
binding result (HT:F-Insv [8]): binds
